Experimental findings from patent US6887474 are described below.

The target of the assay is prostate specific membrane antigen (PSMA) (UniProt Q04609). Briefly: flow cytometry on LnCAP prostate cancer cells. (Flow cytometry measures light scatter and fluorescence of single cells or particles in a stream.)
Sequence of UniProt Q04609 (Q04609 whole entry): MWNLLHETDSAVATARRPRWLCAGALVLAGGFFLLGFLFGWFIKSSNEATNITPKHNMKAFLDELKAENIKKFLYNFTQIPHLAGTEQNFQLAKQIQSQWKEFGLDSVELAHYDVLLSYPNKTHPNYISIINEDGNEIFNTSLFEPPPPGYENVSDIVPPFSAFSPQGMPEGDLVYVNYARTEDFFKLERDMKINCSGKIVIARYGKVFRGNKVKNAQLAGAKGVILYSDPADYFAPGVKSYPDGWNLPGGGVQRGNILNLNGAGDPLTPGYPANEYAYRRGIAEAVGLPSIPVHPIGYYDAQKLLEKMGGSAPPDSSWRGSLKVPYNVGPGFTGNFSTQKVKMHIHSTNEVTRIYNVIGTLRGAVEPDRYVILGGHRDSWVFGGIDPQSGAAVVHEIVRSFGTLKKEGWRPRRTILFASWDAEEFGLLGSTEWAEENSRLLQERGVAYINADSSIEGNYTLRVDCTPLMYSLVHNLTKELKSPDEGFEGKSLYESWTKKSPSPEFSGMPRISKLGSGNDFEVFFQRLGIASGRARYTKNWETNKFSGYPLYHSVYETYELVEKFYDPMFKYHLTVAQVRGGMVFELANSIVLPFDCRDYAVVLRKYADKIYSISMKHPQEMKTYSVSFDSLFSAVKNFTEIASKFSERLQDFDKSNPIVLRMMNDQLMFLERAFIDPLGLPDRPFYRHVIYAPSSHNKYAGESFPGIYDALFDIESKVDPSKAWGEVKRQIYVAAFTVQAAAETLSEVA

As to “antibody 7E11 (ATCC #FB 10494) recognizing prostate specific membrane antigen”, the flow cytometry on LnCAP (% positive) stood at 58%.
